In PMC9253517 (The Journal of Experimental Medicine, 2022):

B1: JN139 (antibody, V domains shown)
VH: QVQLQESGPGLVKPSETLSLTCTVSGGSISNYFWSWIRQPPGQGLEWIGYIFYNGDTTYNPSLKSRVTISVDTSKNQFSLKLSSVTAADTAVYYCARDYYDSRGVFHGGFDSWGQGILVTVSS
VL: DIVMTQSPDSLAVSLGERATINCKSSQSVLYSSNSRNYLAWYQQRPGQPPKRLIYWASTRESGVPDRFSGSGSGTDFTLTISSLQAEDVAVYYCQQYYTNPPWTFGQGTKVEIK
B2: JN140 (antibody, V domains shown)
VH: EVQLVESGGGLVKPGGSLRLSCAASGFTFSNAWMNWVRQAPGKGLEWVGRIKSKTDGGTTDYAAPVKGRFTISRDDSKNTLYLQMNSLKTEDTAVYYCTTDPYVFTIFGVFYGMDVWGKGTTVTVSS
VL: QSALTQPASVSGSPGQSITISCTGTSSDVGSYNLVSWYQQHPGKAPKLMIYEVSKRPSGVSNRFSGSKSGNTASLTISGLQAEDEADYYCCSYAGSSTHHWVFGGGTKLTVL
B3: JN141 (antibody, V domains shown)
VH: EVQLVESGGGLVQPGGSLRLSCAASGFTFSSYSMNWVRQAPGKGLEWVSYISSSSSTISYADSVKGRFTISRDNAKNSLYLQMNSLRAEDTAVYYCASGKGVGFDYWGQGTLVTVSS
VL: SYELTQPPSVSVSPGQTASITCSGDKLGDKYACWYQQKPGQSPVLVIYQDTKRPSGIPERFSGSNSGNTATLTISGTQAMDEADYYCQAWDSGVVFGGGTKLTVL
B4: JN142 (antibody, V domains shown)
VH: QVQLVQSGAEVKKPGASVKVSCKASGYTFTSYDINWVRQATGQGLEWMGWMNPNSGNTGYAQKFQGRVTMTRNTSISTAYMELSSLRSEDTAVYYCARVLAPYDYVWGSYRYDNWFDPWGQGTLVTVSS
VL: QSVLTQPPSVSAAPGQKVTISCSGSSSNIGNNYVSWYQQLPGTAPKLLIYDNNKRPSGIPDRFSGSKSGTSATLGITGLQTGDEADYYCGTWDSSLSALFGGGTKLTVL
B5: JN144 (antibody, V domains shown)
VH: QVQLVQSGPEVKKPGASVKVSCKASDYTFTSYDIIWVRQAPGQGLEWMGWISTHNGNTNYAQELQGRVTMTRETSTSTAHMELRSLRSDDTAVYYCARGPNRYLRLLEWSIPADWFFDLWGRGTLVTVSS
VL: EIVLTQSPGTLSLSPGDRATLSCRASQSVPSTSIAWYQQKPGQAPRLLFHGAASRAIGIPDRFSGSGSGTDFTLTISRLEPEDSAVYYCQHCGDSPPLLTFGPGTKVDIK
B6: JN145 (antibody, V domains shown)
VH: QVQLVQSGAEVKKPGASVKVSCKASGYTFTSYYMHWVRQAPGQGLEWMGIINPSGGSTSYAQKFQGRVTMTRDTSTSTVYMELSSLRSEDTAVYYCARGESDDYVWGSYRYTNNWFDPWGQGTLVTVSS
VL: not shown
B7: JN130 (antibody, V domains shown)
VH: QVQLQESGPGLVKPSQTLSLTCTVSGGSISSGDYYWSWIRQPPGKGLEWIGYIYYSGSTYYNPSLKSRVTISVDTSKNQFSLKLSSVTAADTAVYYCARVLRFYDNIWENYRLPRYFDYWGQGTLVTVSS
VL: QSALTQPRSVSGSPGQSVSISCTGTSSDVGGSEYVSWYQQHPGKAPKLMIYDVNQRPSGVPARFSGSKSGNTASLTISGLQAEDEADYYCCSYAGTYNFEVFGGGTKLSVL
B8: JN131 (antibody, V domains shown)
VH: EVQLVESGGGLVKPGGSLRLSCAASGFTFNSYSMNWVRQAPGKGLEWVSSISSSSNFIYYADSVKGRFTISRDNAKNSLYLQMNSLRAEDTAMYYCARDPGYRSSWFEVYYFDYWGPGTLVTVSS
VL: QSALTQPASVSGSPGQSITISCTGTSSDVGSYNLVSWYQQHPGKAPKLVIYEVTKRPSGVSNRFSGSKSGNTASLTISGLQAEDEADYYCCSYGGSTTSPYVFGTGTKVTVL
B9: JN133 (antibody, V domains shown)
VH: QLQLQESGPGLVKPSETLSLTCTVSGGSISSGSNYWGWIRQPPGKGLEWIGTIYYSGATYFSPSLKNRITISVDTSKNQFSLRLSSVIAADTAVYYCARLPFQNYYFYGMDVWGKGTTVTVSS
VL: SYELTQPPSVSVSPGQTARITCSGDVLPKQYAYWYQQKPGQAPVLVISKDSERPSGIPERFSGSSSGTTVTLTISGVQGEDEADYHCQSADSSGTWVFGGGTKLTVL
B10: JN106 (antibody, V domains shown)
VH: EVQLVESGGGLVQPGGSLRLSCAASGFTFSENWMSWVRQAPGKGLEWVGNIKQDASEKYFVDSVKGRFTISRDNAKNSLYLQMDSLRAEDTAVYFCARWGYSNSYYYIDCWGQGTLVTVSS
VL: QAVVTQEPSFSVSPGGTVTFTCGLTSGSVSASNHPSWYQQTPGQAPRTLMYGTNIRSSGVPDRFSGSILGNKAALTITGAQADDECDYYCVLYIGDGVWVFGGGTKLTVL
B11: JN108 (antibody, V domains shown)
VH: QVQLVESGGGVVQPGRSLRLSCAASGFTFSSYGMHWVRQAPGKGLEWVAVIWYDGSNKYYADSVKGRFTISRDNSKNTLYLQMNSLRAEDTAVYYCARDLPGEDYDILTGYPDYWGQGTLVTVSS
VL: QSALTQPASVSGSLGQSITISCTGTSSDVGSYNLVSWYQQHPGKVPKLMIYEANKRASGVSDRFSGSKTDNTASLTISGLQAEDEADYYCCSYAGSRTHVIFGGGTKLTV
B12: JN111 (antibody, V domains shown)
VH: QVQLQESGPGLVRPSETLSLTCTVSGASITSYFWTWIRQAPGKGLEWIGYIYYSGSTNYNPSLKSRGTISVDTSKNQFSLKLSSVTAADTAVYYCARGMSDVVIVPAALSFGYDDAYYYYYYMDVWGKGTTVTVSS
VL: QSALTQPASVSGSLGQSITISCTGTSSDVGSYNLVSWYQQHPGKVPKLMIYEANKRASGVSDRFSGSKTDNTASLTISGLQAEDEADYYCCSYAGSRTHVIFGGGTKLTV
B13: JN112 (antibody, V domains shown)
VH: QVQLQESGPGLVKPSQTLSLTCTVSGGSISSGDYYWSWIRQPPGKGLEWIGYIYYSGSTYYNPSLKSRVTISVDTSKNQFSLKLSSVTAADTAVYYCAREGTIFGEPFDYWGQGTLVT
VL: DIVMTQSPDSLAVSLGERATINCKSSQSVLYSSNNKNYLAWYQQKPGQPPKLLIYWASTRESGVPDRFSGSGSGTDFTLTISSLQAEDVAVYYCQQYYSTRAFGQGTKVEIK
B14: JN220 (antibody, V domains shown)
VH: VQLVESGGGVVQPGRSLRLSCAASGFTFSSYTMHWVRQAPGKGLEWVAVISYDGSNKYYADSVKGRFTISRDNSKNTLYLQMNSLRAEDTAVYYCAISSGWYSMSGAFDIWGQGTMVTVSS
VL: QSALTQPRSVSGSPGQSVTISCTGTSSDVGGYNYVSWYQQHPGKAPKLMIYDVSKRPSGVPDRFSGSKSGNTASLTISGLQAEDEADYYCCSYAGSYRVFGTGTKVTVL
B15: JN024 (antibody, V domains shown)
VH: QVQLQESGPKLMKPSQTLSLTCAVSGASIRSGGYYWSWIRQHPGKGLEWIGYIYYSGSTYYNPSLKSRATISVDTSKNQFSLKLTSVTAADTAVYYCARAGRWFGELFRGGGYFDYWGLGTLVTVSS
VL: AIRMTQSPSSLSASVGDRVTITCQASQDIGIFLNWYQQKSGEAPKLLIYDASNLETGVPSRFSGSGSGTDFIFIIRNLQPEDSATYYCQQHNHLPRVTFGPGTKVDIK
B16: JN011 (antibody, V domains shown)
VH: VQLVESGGGVVQPGRSLRLSCAASGFTFSSYAMHWVRQAPGKGLEWVAVISYDGSNKYYADSVKGRFTISRDNSKNTLYLQMNSLRAEDTAVYYCAGSLGEEYYYYYYGMDVWGQGTTVTVSS
VL: NFMLTQPHSVSESPGKTVTISCTGSSGSIASNYVQWYQQRPGSAPTTVIYEDNQRPSGVPDRFSGSIDSSSNSASLTISGLKTEDEADYYCQSYDSSNWVFGGGTKLTVL
B17: JN020 (antibody, V domains shown)
VH: EVQLVESGGDLVRRGESLRLSCAASGFTFSNHWMTWVRQAPGRGLEWVANIEGDGSDKYYVDSVKGRFTISRDNARNLLFLYMNALRGDDTAIYYCARHSATYHGLDQWGQGTLVTVSS
VL: LTQPRSVSGSPGQSVTISCTGTSSDVGGYIFVSWYQRHPGKAPKLILFHVDKRPSGVPDRFSGSRSGNTASLTISGLQTEDEADYDCYSFAGTIWMFGGGTRLTVL
B18: JN019 (antibody, V domains shown)
VH: VQLVESGGGVVQPGRSLRLSCAASGFTFSNYGMHWVRQAPGKGLEWVAFISYDANHKYSTNSVKGRFTISRDNSKNTLYLQMNSLRTEDTAVYYCASMDGLHPGTAQFYGMDVWGQGTTVTVSS
VL: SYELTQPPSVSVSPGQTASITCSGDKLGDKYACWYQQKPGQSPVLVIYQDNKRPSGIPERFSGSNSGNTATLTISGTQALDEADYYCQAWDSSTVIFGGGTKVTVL
B19: JN021 (antibody, V domains shown)
VH: QLQLQESGPGLVKPSETLSLTCTVSGGSIRSRGYYWGWIRQPPGKGLEWIGSIDYSGSTYYNPSLKSRVTISVDTSKNQFSLKLNSVTAADTAVFYCASSADTYYDILTGYYKGWYIDYWGQGTLVTVSS
VL: LTQPRSVSGSPGQSVTISCAGTSSDVGGYNYVSWYQQHPGKAPKLMIFDVTKRPSGVPDRFSGSKSGNTASLTISGLQAEDDADYYCCSYAGSYTYWVFGGGTKLTVL
B20: JN231 (antibody, V domains shown)
VH: VQLVESGGGVVQPGRSLRLSCAASGFTFSSYGMHWVRQAPGKGLEWVAVISYDGSNKYYADSVKGRFTISRDNSKNTLYLQMNSLRAEDTAVYYCAKDSRYYDFWSGYLGPDEYYYYYYMDVWGKGTTVTVSS
VL: not shown
B21: JN006 (antibody, V domains shown)
VH: VQLVESGGGVVQPGRSLRLSCAASGFTFSNYVMHWVRQAPGKGLEWVAVMSSDGSIKYYADSVKGRFTVSRDNSKNTLYLQMNSLRPEDTAVYYCARGGRYSGSHTGDAFDIWGQGTMVTVSS
VL: SYELTQPPSVSVSPGQTARITCSGDALPNRYSYWYQQKPGQAPVLVIFKDSERPSGIPERFSGSSSGTTVTLTISGVQAEDEADYYCQSADSSGTWVFGGGTKLTVL

Target: SARS-CoV-2 Wuhan-Hu-1 NTD (SARS-CoV-2, UniProt P0DTC2 14-307)
Assay: cell-based or functional assay

Point of comparison: B6, “neutralisation IC50, WT (293TAce2)” value 0.688 µg/mL. Against it:
- B1 — higher, > 1 µg/mL
- B2 — higher, > 1 µg/mL
- B3 — higher, > 1 µg/mL
- B4 — higher, > 1 µg/mL
- B5 — higher, > 1 µg/mL
- B7 — higher, > 1 µg/mL
- B8 — higher, > 1 µg/mL
- B9 — higher, > 1 µg/mL
- B10 — higher, > 1 µg/mL

Target: SARS-CoV-2 Wuhan-Hu-1 NTD (SARS-CoV-2, UniProt P0DTC2)
Assay: cell-based or functional assay

Point of comparison: B18, “neutralisation IC50, WT (293TAce2)” value 0.0345 µg/mL. Against it:
- B11 — higher, > 1 µg/mL
- B12 — higher, > 1 µg/mL
- B13 — higher, > 1 µg/mL
- B14 — higher, > 1 µg/mL
- B15 — higher, > 1 µg/mL
- B16 — higher, > 1 µg/mL
- B17 — higher, > 1 µg/mL
- B19 — higher, > 1 µg/mL
- B20 — higher, > 1 µg/mL
- B21 — higher, > 1 µg/mL
